Data set [1] concerns the target T1, E1 peptide E1-P2(25), BP-E1, unphosphorylated (Bovine papillomavirus, UniProt P03116 SEQ:1-25).
T1 chain: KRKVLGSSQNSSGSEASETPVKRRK
Description: filter; binds at 0.25 mM, better than T-2(17); EMSA works without glutaraldehyde. The note with it: protein: synthetic; tags: synthetic peptide; label: 5'-32P.

Data set [2] has as its target SV40 large T antigen (full length) (Simian virus 40, UniProt P03070 P03070:1-708). Kind of data set: EMSA; hexamers and double hexamers; 7 mM MgCl2, AMP-PNP, 37 C, glutaraldehyde. The note with it: label: 5'-32P.
Data set [3] concerns the target T2, T-ag peptide T-2(17), unphosphorylated (Simian virus 40, UniProt P03070).
T2 chain: ATADSQHSTPPKKKRKV
Kind of data set: filter; significant at 0.5 mM, saturated at 1-2 mM; higher affinity than 13-mer. The note with it: protein: synthetic; tags: synthetic peptide; label: 5'-32P.

Data set [4] deals with T3, T-ag peptide 2(9), unphosphorylated (Simian virus 40).
T3 chain: SQHSTPPKK
Description: filter; background at 0.5-2 mM; EMSA at 2 mM negative. Conditions: protein: synthetic; tags: synthetic peptide; label: 5'-32P.

Data set [5] addresses T4, T-ag peptide 1(9), phospho-Thr124 (Simian virus 40).
T4 chain: SQHS[pT]PPKK
The description is as above. Conditions: protein: synthetic; tags: synthetic peptide, phosphorylated Thr124; label: 5'-32P.

Where no end group is shown, it is not given here. [ ]: non-standard residue; d: D form. pT = C[C@@H](OP(=O)(O)O)[C@H](N)C(=O)O

B1: 64-bp SV40 core origin (dsDNA)
DNA 1: TAATTTTTTTTATTTATGCAGAGGCCGAGGCCGCCTCGGCCTCTGAGCTATTCCAGAAGTAGTG
DNA 2: CACTACTTCTGGAATAGCTCAGAGGCCGAGGCGGCCTCGGCCTCTGCATAAATAAAAAAAATTA
Take B1: the binding result in data set [1] was “binds”; in data set [2], “binds”; in data set [3] it was “binds”; in data set [4], “no binding”; in data set [5] it was “no binding”.

The values are drawn from patent publication US20040147006, “Peptides that bind to DNA and inhibit DNA replication, and methods of use” (published 2004).
